According to patent publication US20150024465A1, “Carbohydrate-Binding Modules of a New Family” (Novozymes A/S, priority 2003, published 2015):

Columns and labels:
[1] = Competition binding assay, references without soluble carbohydrate
Experimental: (§1) Affinity of CBMX for a number of soluble carbohydrates was tested in a competition assay by mixing 100 μl CBMX with both Avicel® (400 μl 50 mg/ml in 20 mM Tris, pH 7.5) and the soluble carbohydrate (dissolved in 500 μl 20 mM Tris, pH 7.5). As references, samples without CBMX or soluble carbohydrate added were used. If CBMX has affinity for the soluble carbohydrate it should be able to keep CBMX in solution which can be measured as increase in absorbance at 280 nm compared to sample without soluble carbohydrate added. After 4 hours incubation at room temperature with agitation, samples were centrifuged and absorbance at 280 nm was read using 200 μl supernatant in the well of a microtiter UV plate. Tested soluble carbohydrates were barley β-glucan (Megazyme, low viscosity), lichenan (Megazyme, Icelandic moss), CMC (carboxymethyl cellulose 7LF, Hercules, USA), Xyloglucan (Megazyme, amyloid, from tamarind seed), lupin galactan (Megazyme) and Locust bean gum (Sigma, G-0753).

[2] = Binding of CBMX to PASC (A280 of supernatant); settings: for A280: Absorbance at 280 nm of 200 μl supernatant, absorbance of buffer subtracted: 20 mM Tris pH 7.5, 4 hours room temperature
Experimental: A similar binding study was performed with PASC (Phosphoric Acid Swollen Cellulose: To 5 g Avicel® moisted with water 150 ml ice-cold 85 ortho-phosphoric acid is added. After 1 hour stirring on ice bath, 500 ml cold acetone is added. The suspension is filtered and washed, first with acetone and then with water). 50 μl purified CBMX was mixed with 500 μl 20 mM Tris, pH 7.5 containing varying amount of PASO (0-10 mg/ml) in an Eppendorf tube. Samples were incubated 4 hours at room temperature with agitation. After centrifugation, 200 μl supernatant was transferred to the well of a microtiter plate and absorbance read at 280 nm.

[3] = Binding of CBMX to Avicel (A280 of supernatant after incubation and centrifugation); settings: for A280: Absorbance at 280 nm of 200 μl supernatant, absorbance of buffer and Avicel subtracted: 20 mM Tris pH 7.5, 4 hours room temperature
Experimental: The carbohydrate-binding domain with affinity for Avicel® and purified as described in Example 2 (CBMX) was studied further. 50 μl purified CBMX was mixed with 500 μl 20 mM Tris, pH 7.5 containing varying amount of Avicel® (0-100 mg/ml) in an Eppendorf tube. After 4 hours incubation at room temperature with agitation, the samples were centrifuged. 200 μl supernatant was transferred to the well of a microtiter plate (Costar, UV plate) and absorbance read at 280 nm on a microtiter plate reader (SpectraMax® Plus, Molecular Devices).

[4] = Competition binding assay with CBMX, Avicel and soluble carbohydrate; settings: for Difference in A280 between samples with and without CBMX added: Avicel 20 mg/ml, 4 hours room temperature; for Share of CBMX kept in solution by the soluble carbohydrate (in words): competition with Avicel
Experimental: as §1

[5] = Binding of CBMX to Avicel (A280 of supernatant after incubation and centrifugation); settings: shorter incubation time (15 min to 1 hour) compared with 4 hours

- Difference in A280 between samples with and without CBMX added ([1]; None - Only Avicel (20 mg/ml) and CBMX, no soluble carbohydrate): 0.018
- Difference in A280 between samples with and without CBMX added ([1]; None - Only CBMX, no Avicel): 0.108
- A280: Absorbance at 280 nm of 200 μl supernatant, absorbance of buffer subtracted ([2]; PASC 0.0 mg/ml (CBMX alone)): 0.0753
- A280: Absorbance at 280 nm of 200 μl supernatant, absorbance of buffer subtracted ([2]; PASC 0.625 mg/ml): 0.0682
- A280: Absorbance at 280 nm of 200 μl supernatant, absorbance of buffer subtracted ([2]; PASC 1.25 mg/ml): 0.0710
- A280: Absorbance at 280 nm of 200 μl supernatant, absorbance of buffer subtracted ([2]; PASC 2.5 mg/ml): 0.0618
- A280: Absorbance at 280 nm of 200 μl supernatant, absorbance of buffer subtracted ([2]; PASC 5 mg/ml): 0.0512
- A280: Absorbance at 280 nm of 200 μl supernatant, absorbance of buffer subtracted ([2]; PASC 10 mg/ml): 0.0471
- Affinity for PASC (in words) ([2]; increasing amount of PASC reduces absorbance of CBMX in the supernatant): has affinity
- A280: Absorbance at 280 nm of 200 μl supernatant, absorbance of buffer and Avicel subtracted ([3]; Avicel 0.0 mg/ml (CBMX alone)): 0.0768
- A280: Absorbance at 280 nm of 200 μl supernatant, absorbance of buffer and Avicel subtracted ([3]; Avicel 0.391 mg/ml): 0.0777
- A280: Absorbance at 280 nm of 200 μl supernatant, absorbance of buffer and Avicel subtracted ([3]; Avicel 0.781 mg/ml): 0.0808
- A280: Absorbance at 280 nm of 200 μl supernatant, absorbance of buffer and Avicel subtracted ([3]; Avicel 1.563 mg/ml): 0.0799
- A280: Absorbance at 280 nm of 200 μl supernatant, absorbance of buffer and Avicel subtracted ([3]; Avicel 3.125 mg/ml): 0.0729
- A280: Absorbance at 280 nm of 200 μl supernatant, absorbance of buffer and Avicel subtracted ([3]; Avicel 6.25 mg/ml): 0.0637
- A280: Absorbance at 280 nm of 200 μl supernatant, absorbance of buffer and Avicel subtracted ([3]; Avicel 12.5 mg/ml): 0.0540
- A280: Absorbance at 280 nm of 200 μl supernatant, absorbance of buffer and Avicel subtracted ([3]; Avicel 25 mg/ml): 0.0326
- A280: Absorbance at 280 nm of 200 μl supernatant, absorbance of buffer and Avicel subtracted ([3]; Avicel 50 mg/ml): 0.0185
- A280: Absorbance at 280 nm of 200 μl supernatant, absorbance of buffer and Avicel subtracted ([3]; Avicel 100 mg/ml): 0.0095
- Share of the protein that binds to Avicel (in words) ([3]; highest concentrations of Avicel, 4 hours incubation): large majority of the protein binds
- Affinity for Avicel (in words) ([3]; summary statement): shown to have affinity
- Difference in A280 between samples with and without CBMX added ([4]; CMC 25 mg/ml): 0.129
- Share of CBMX kept in solution by the soluble carbohydrate (in words) ([4]; CMC): almost all
- Difference in A280 between samples with and without CBMX added ([4]; Galactan 20 mg/ml): 0.043
- Difference in A280 between samples with and without CBMX added ([4]; Lichenan 20 mg/ml): 0.025
- Difference in A280 between samples with and without CBMX added ([4]; Locust bean gum 25 mg/ml): 0.087
- Difference in A280 between samples with and without CBMX added ([4]; Xyloglucan 11 mg/ml): 0.052
- Difference in A280 between samples with and without CBMX added ([4]; beta-Glucan 20 mg/ml): 0.100
- Share of CBMX kept in solution by the soluble carbohydrate (in words) ([4]; beta-glucan): almost all
- Affinity of CBMX for the soluble carbohydrate (in words) ([4]; galactan): to some extent
- Share of CBMX kept in solution by the soluble carbohydrate (in words) ([4]; galactan): about half
- Affinity of CBMX for the soluble carbohydrate (in words) ([4]; lichenan): no affinity
- Share of CBMX kept in solution by the soluble carbohydrate (in words) ([4]; lichenan): does not result in any increase
- Share of CBMX kept in solution by the soluble carbohydrate (in words) ([4]; locust bean gum): the majority
- Affinity of CBMX for the soluble carbohydrate (in words) ([4]; xyloglucan): to some extent
- Share of CBMX kept in solution by the soluble carbohydrate (in words) ([4]; xyloglucan): about half
- Completeness of binding to Avicel (in words) [5]: less complete binding
B1: CBMX: Carbohydrate-binding module of Pseudoplectania nigrella GH61 (positions 34-174 of SEQ ID NO:2), expressed in Aspergillus oryzae, purified on Avicel (protein, listed as Pseudoplectania nigrella)
chain: SSGTSNDKAVASSSIAAVDPVTSSVVASVQVPNFTATDVPTFTATDIPTFTATDVPIFTKKPQQPSTLLTRTRTHASVSFVAKPSAFIPKPSASTIPSKPKTPEEVNKCLDAVNACITQAQSSIGGVVNFEPCESQRALCY
